Legend:
[1] = system: purified baculovirus-expressed STAT3β
[2] = system: purified baculovirus-expressed STAT3 (full-length)

Substance	in vitro phosphorylation of STAT3b (32P-ATP, SDS-PAGE, autoradiography) [1]	in vitro phosphorylation of STAT3 (32P-ATP, SDS-PAGE, autoradiography) [2]
purified JNK protein kinase (BIOMOL)	STAT3b does not undergo serine phosphorylation by any of the MAPKs	p38 and JNK can effectively phosphorylate STAT3 in vitro
purified ERKs protein kinases (BIOMOL)	STAT3b does not undergo serine phosphorylation by any of the MAPKs	STAT3 phosphorylation by ERK, however, is minimal compared to levels achieved for JNK and p38
purified p38 protein kinase (AG Scientific)	STAT3b does not undergo serine phosphorylation by any of the MAPKs	p38 and JNK can effectively phosphorylate STAT3 in vitro
